Measured values as given in US20110223155A1.

Columns and labels:
[1] = target: full-length human Notch3 receptor expressed on cells (human) (UniProt Q9UM47); experiment: cell-based or functional assay
[2] = target: human Notch1-LD/Fc (LIN/dimerization domain fused to Fc region at the carboxyl terminus) (human) (UniProt P46531); experiment: ELISA on coated Notch1-LD/Fc
[3] = target: Notch3-LD/Fc fusion protein (Notch3 LIN12/dimerization domain fused to human gamma 1 Fc) (human) (UniProt Q9UM47); experiment: ELISA on coated Notch3-LD/Fc

Sequence of UniProt P46531 (P46531 1440-1735 limits assumed, form in doubt): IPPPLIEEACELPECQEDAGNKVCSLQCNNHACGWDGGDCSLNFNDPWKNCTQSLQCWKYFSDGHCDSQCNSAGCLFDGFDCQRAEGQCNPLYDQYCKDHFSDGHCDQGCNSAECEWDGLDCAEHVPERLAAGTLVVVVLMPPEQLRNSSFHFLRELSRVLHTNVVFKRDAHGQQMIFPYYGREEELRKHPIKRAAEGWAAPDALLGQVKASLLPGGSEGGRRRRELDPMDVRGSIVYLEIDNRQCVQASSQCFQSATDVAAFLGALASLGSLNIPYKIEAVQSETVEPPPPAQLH

With “human Jagged2 expressed on 293 cells (Jagged2/293F) (from UniProt Q9Y219 24-1238) (ligand)” as the substance, how does the luciferase activity (CBF1-Luc reporter) of NC85 cells cocultured with Jagged2/293F, against coculture with PCDNA 3.1/293T [1] read?
The luciferase activity (CBF1-Luc reporter) of NC85 cells cocultured with Jagged2/293F, against coculture with PCDNA 3.1/293T was 2 to 4 fold.

Which results are given for “Control IgG1 (irrelevant IgG1 monoclonal antibody)”?
ELISA OD reading (mean) [2]: 0.066 OD 450 nm; ELISA OD reading (mean) [3]: 0.064 OD 450 nm

Which luciferase activity (CBF1-Luc reporter) of NC85 cells cocultured with Jagged1/293T, against coculture with PCDNA 3.1/293T [1] does the source give for “human Jagged1 expressed on 293T cells (Jagged1/293T) (from UniProt P78504 34-1218) (ligand)” here?
Its luciferase activity (CBF1-Luc reporter) of NC85 cells cocultured with Jagged1/293T, against coculture with PCDNA 3.1/293T is 2 to 4 fold.
